{"source": "paper doi:10.1101/2021.12.01.470767", "about": "(bioRxiv, 2021)", "binders": {"B1": {"name": "COVA1-07 (antibody, V domains shown)", "VH": "QVQLVESGAEVKKPGSSVKVSCKASGGTLSSYAITWVRQAPGQGLEWVGGIIPIFGTANYAQKFQGRVTITADESTSTAYMELSSLRSEDTAVYYCARVGAYDSSGYSNDYWGQGTLVTVSS", "VL": "DIQLTQSPATLSLSPGERATLSCRASQSVSSYLAWYQQKPGQAPRLLIYDASNRATGIPARFSGSGSGTDFTLTISSLEPEDFAVYYCQQRSNWPPRVTFGGGTKVEIK"}, "B2": {"name": "COVA2-14 (antibody, V domains shown)", "VH": "B1 VH with E6Q, L29F, T35I, V48M, A72T, G100R, A101Y, S108Y, N109E", "VL": "B1 VL with D1E, Q3V, K39E, R97M, V98Y, G102Q"}, "B3": {"name": "COVA2-18 (antibody, V domains shown)", "VH": "EVQLVQSGAEVKKPGSSVKVSCKASGGTFSSYAISWVRQAPGQGLEWMGGIIPIFGTTNYAQKFQGRVTITTDESTSTAYMELSSLRSEDTAVYYCARVYSYDSSGYYLEYWGQGTRVTVSS", "VL": "B1 VL with D1E, Q3V, R97S, V98I, G102Q, K105R, V106L"}}, "note": "Where a chain is given by its changes, count along the chain named.", "data": [{"biological_target": "full-length SARS-CoV S, cell surface-expressed (SARS-CoV, strain , UniProt P59594)", "assay": "flow cytometry on cells", "values": [{"binder": "B1", "binding result": "binds"}, {"binder": "B2", "binding result": "binds"}, {"binder": "B3", "binding result": "binds"}]}, {"biological_target": "full-length S of bat CoV SHC014, cell surface-expressed (Bat SARS-like coronavirus RsSHC014, UniProt U5WLK5)", "assay": "flow cytometry on cells", "values": [{"binder": "B1", "binding result": "binds"}, {"binder": "B2", "binding result": "binds"}, {"binder": "B3", "binding result": "binds"}]}, {"biological_target": "full-length S of endemic HCoV NL63, cell surface-expressed (Human coronavirus NL63, strain not …, UniProt Q6Q1S2)", "assay": "flow cytometry on cells", "values": [{"binder": "B1", "binding result": "no binding (tested: 50 μg/mL)"}, {"binder": "B2", "binding result": "no binding (tested: 50 μg/mL)"}, {"binder": "B3", "binding result": "no binding (tested: 50 μg/mL)"}]}, {"biological_target": "full-length S of endemic HCoV OC43, cell surface-expressed (Human coronavirus OC43, strain not …, UniProt P36334)", "assay": "flow cytometry on cells", "values": [{"binder": "B1", "binding result": "no binding (tested: 50 μg/mL)"}, {"binder": "B2", "binding result": "no binding (tested: 50 μg/mL)"}, {"binder": "B3", "binding result": "no binding (tested: 50 μg/mL)"}]}, {"biological_target": "full-length S of endemic HCoV 229E, cell surface-expressed (Human coronavirus 229E, strain not …, UniProt P15423)", "assay": "flow cytometry on cells", "values": [{"binder": "B1", "binding result": "no binding (tested: 50 μg/mL)"}, {"binder": "B2", "binding result": "no binding (tested: 50 μg/mL)"}, {"binder": "B3", "binding result": "no binding (tested: 50 μg/mL)"}]}, {"biological_target": "full-length MERS-CoV S, cell surface-expressed (MERS-CoV, strain , UniProt K9N5Q8)", "assay": "flow cytometry on cells", "values": [{"binder": "B1", "binding result": "no binding (tested: 50 μg/mL)"}, {"binder": "B2", "binding result": "no binding (tested: 50 μg/mL)"}, {"binder": "B3", "binding result": "no binding (tested: 50 μg/mL)"}]}, {"biological_target": "full-length SARS-CoV-2 S (WT), cell surface-expressed (SARS-CoV-2, ancestral (Wuhan-Hu-1), UniProt P0DTC2)", "assay": "flow cytometry on cells", "values": [{"binder": "B1", "binding result": "binds"}, {"binder": "B2", "binding result": "binds"}, {"binder": "B3", "binding result": "binds"}]}]}
